How the values were obtained:
[1] = target: EGFR on Cos7 cells (African green monkey (endogenous in Cos7)); assay: single-molecule diffusional mobility shift assay (smDIMSA); living Cos7 cells treated with EGF and pertuzumab; EGFR bait labelled with Fab-Alexa Fluor 647, tracked before and after the anti-ErbB2 antibody
[2] = target: EGFR on Cos7 cells (African green monkey (endogenous in Cos7)); assay: single-molecule diffusional mobility shift assay (smDIMSA); living Cos7 cells treated with EGF, no pertuzumab (mock); EGFR bait labelled with Fab-Alexa Fluor 647, tracked before and after the anti-ErbB2 antibody
[3] = target: mEos3.2-CD86 (CD86 truncated at R227) (UniProt P42081); assay: single-molecule diffusional mobility shift assay (smDIMSA); homodimer format on living HeLa cells: receptor partially labelled with the Alexa Fluor 647 Fab (20 nM, 15 min) of a monoclonal antibody, tracked before and after 15 min with the same full-length antibody; 37 °C; peak shift averaged from multiple cells

ErbB2 on Cos7 cells (receptor)
diffusion coefficient shift (EGF-treated cells, with pertuzumab) [1]: 6% | diffusion coefficient shift (EGF-treated cells) [2]: 12%

mEos3.2-CD86 (CD86 truncated at R227) (from UniProt P42081 24-227) (receptor)
peak shift of the diffusion coefficient [3]: < 1%

Source: article PMC8080847
